The text below walks through data of article PMC5881488 (The Journal of Cell Biology, 2018).

B4: MBP-Ana2 NT-2PM (aa 1–317, T33E/S38D) (domain or fragment, Drosophila, UniProt Q9XZ31 1-317, looked up)
chain: MFVPETEDMLPRLAPRPSAAVPMGHTNEIIGPEVPEVDILFGQPPQDPQMQPQQPNHAHQESSPRAAPTFASWKKQMLPRVNFSPILATELGPRTAPSSNSPCSSKEYQVMPRDRNYASDAQQTTNHMNCNAGGYNAEPKQQAYQSRRLSSSSNADVLTICAGTQTDPFNPSPPRKSLPQVVYSDIDVSNLANKSDLAALVSLVESVRHEQQQLRNLCEMILEQQQRAKPEAISKASSTTGTQCDILTTNQAGRRLSPIMQDYIAEEEEPLPPPQARVIPQFPSPRPHPPIAQSTGYRANTPQAKRIPQLAKPNTEK

Data set [1] deals with MBP-Ana2 NT-2PM (aa 1–317, T33E/S38D) (Drosophila) (UniProt Q9XZ31). The data set can be described thus: pull-down.
For data set [2], the target named is Plk4-GFP lacking the putative CC and PB3 (Drosophila). Nature of the data set: co-IP.
The target of data set [3] is Plk4-GFP lacking PB3 (Drosophila). Nature of the data set: co-IP.
Data set [4] deals with T1, GST-Ana2, full length (Drosophila, UniProt Q9XZ31 1-420).
T1 sequence (looked up): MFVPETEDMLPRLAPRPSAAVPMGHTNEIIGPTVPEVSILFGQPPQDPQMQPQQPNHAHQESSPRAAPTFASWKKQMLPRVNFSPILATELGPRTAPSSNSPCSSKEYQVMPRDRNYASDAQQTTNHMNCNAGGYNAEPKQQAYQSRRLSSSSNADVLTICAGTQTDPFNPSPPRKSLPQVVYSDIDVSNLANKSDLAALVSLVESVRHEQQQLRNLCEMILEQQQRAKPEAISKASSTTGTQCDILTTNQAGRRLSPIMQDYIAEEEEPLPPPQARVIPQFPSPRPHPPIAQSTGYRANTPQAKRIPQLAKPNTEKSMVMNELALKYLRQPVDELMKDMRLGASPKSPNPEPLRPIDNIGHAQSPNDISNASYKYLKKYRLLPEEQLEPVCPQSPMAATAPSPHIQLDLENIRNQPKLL
The data set can be described thus: pull-down.

Data set [5] concerns the molecule itself. Nature of the data set: pull-down.
The target of data set [6] is B4. Nature of the data set: pull-down.

For “His6-Ana2 CT-3PM (aa 318–420, S318/S370/S373 phosphomimetic) (from UniProt Q9XZ31 318-420) (domain or fragment)”, the fold of His6-Ana2 CT pulled down relative to WT NT with WT CT in data set [1] came out at 3.5 fold.

B1: V5-Ana2 (anastral spindle 2), full length, wild type (natural protein)
chain: MFVPETEDMLPRLAPRPSAAVPMGHTNEIIGPTVPEVSILFGQPPQDPQMQPQQPNHAHQESSPRAAPTFASWKKQMLPRVNFSPILATELGPRTAPSSNSPCSSKEYQVMPRDRNYASDAQQTTNHMNCNAGGYNAEPKQQAYQSRRLSSSSNADVLTICAGTQTDPFNPSPPRKSLPQVVYSDIDVSNLANKSDLAALVSLVESVRHEQQQLRNLCEMILEQQQRAKPEAISKASSTTGTQCDILTTNQAGRRLSPIMQDYIAEEEEPLPPPQARVIPQFPSPRPHPPIAQSTGYRANTPQAKRIPQLAKPNTEKSMVMNELALKYLRQPVDELMKDMRLGASPKSPNPEPLRPIDNIGHAQSPNDISNASYKYLKKYRLLPEEQLEPVCPQSPMAATAPSPHIQLDLENIRNQPKLL
B1 gave a further fold decrease of co-precipitated Ana2 relative to deletion of PB3 alone in data set [2] of 2 fold. Further, in data set [3], the fold decrease of co-precipitated Ana2 on deletion of PB3 was 2 fold.

B2: Plk4 1–317-FLAG-His6 (domain or fragment, Drosophila, UniProt O97143 1-317, looked up)
chain: MLSNRAFGETIEDYEVQHLLGKGGFATVYKARCLHTHQDVAIKMIDKKLIQGTGLTNRVRQEVEIHSRLKHPSVLQLYTFFQDANYVYLVLELAHNGELHRYMNHIARPFTETEAASILKQVVAGLLYLHSHNIMHRDISLSNLLLSREMHVKIADFGLATQLKRPDERHMTMCGTPNYISPEVVSRTSHGLPADVWSVGCMLYTLLVGRPPFETDAVQSTLNKVVMSEYIMPAHLSYEAQDLINKLLKKLPHERITLEAVLCHPFMLKCSNGGHSAPGALNVFSQSMESGDSGIITFASSDSRNSQQIRSVENSGP
As for B2, in data set [4], the binding result is given as “binds”.

B3: MBP-Ana2 NT (aa 1–317), wild type (domain or fragment, Drosophila, UniProt Q9XZ31 1-317, looked up)
chain: MFVPETEDMLPRLAPRPSAAVPMGHTNEIIGPTVPEVSILFGQPPQDPQMQPQQPNHAHQESSPRAAPTFASWKKQMLPRVNFSPILATELGPRTAPSSNSPCSSKEYQVMPRDRNYASDAQQTTNHMNCNAGGYNAEPKQQAYQSRRLSSSSNADVLTICAGTQTDPFNPSPPRKSLPQVVYSDIDVSNLANKSDLAALVSLVESVRHEQQQLRNLCEMILEQQQRAKPEAISKASSTTGTQCDILTTNQAGRRLSPIMQDYIAEEEEPLPPPQARVIPQFPSPRPHPPIAQSTGYRANTPQAKRIPQLAKPNTEK
With B3, the binding result in data set [5] is given as “binds”.
As to B4, in data set [5], the binding result was “binds”.

B5: His6-Ana2 CT (aa 318–420), wild type (domain or fragment, Drosophila, UniProt Q9XZ31 318-420, looked up)
chain: SMVMNELALKYLRQPVDELMKDMRLGASPKSPNPEPLRPIDNIGHAQSPNDISNASYKYLKKYRLLPEEQLEPVCPQSPMAATAPSPHIQLDLENIRNQPKLL
As to B5, the binding result in data set [6] is listed as “binds”.
